From publication PMC6614449, “Targeting DNAJB9, a novel ER luminal co-chaperone, to rescue ΔF508-CFTR” (Scientific Reports, 2019)

Biological target: T1, full length FLAG-CFTR (WT-CFTR) (UniProt P13569 1-1480)
T1 construct: Cystic Fibrosis transmembrane-conductance regulator (CFTR), wild type, 1,480 amino acids; Surface CFTR was probed with anti-FLAG on fixed cells, so the FLAG tag may lie in an extracellular loop; also called FLAG-WT-CFTR; Cystic Fibrosis transmembrane-conductance regulator; source: HEK293 cells stably expressing it; purified on anti-FLAG resin (ProtoArray) or in whole-cell lysate (co-IP)
T1 sequence (P13569 whole entry): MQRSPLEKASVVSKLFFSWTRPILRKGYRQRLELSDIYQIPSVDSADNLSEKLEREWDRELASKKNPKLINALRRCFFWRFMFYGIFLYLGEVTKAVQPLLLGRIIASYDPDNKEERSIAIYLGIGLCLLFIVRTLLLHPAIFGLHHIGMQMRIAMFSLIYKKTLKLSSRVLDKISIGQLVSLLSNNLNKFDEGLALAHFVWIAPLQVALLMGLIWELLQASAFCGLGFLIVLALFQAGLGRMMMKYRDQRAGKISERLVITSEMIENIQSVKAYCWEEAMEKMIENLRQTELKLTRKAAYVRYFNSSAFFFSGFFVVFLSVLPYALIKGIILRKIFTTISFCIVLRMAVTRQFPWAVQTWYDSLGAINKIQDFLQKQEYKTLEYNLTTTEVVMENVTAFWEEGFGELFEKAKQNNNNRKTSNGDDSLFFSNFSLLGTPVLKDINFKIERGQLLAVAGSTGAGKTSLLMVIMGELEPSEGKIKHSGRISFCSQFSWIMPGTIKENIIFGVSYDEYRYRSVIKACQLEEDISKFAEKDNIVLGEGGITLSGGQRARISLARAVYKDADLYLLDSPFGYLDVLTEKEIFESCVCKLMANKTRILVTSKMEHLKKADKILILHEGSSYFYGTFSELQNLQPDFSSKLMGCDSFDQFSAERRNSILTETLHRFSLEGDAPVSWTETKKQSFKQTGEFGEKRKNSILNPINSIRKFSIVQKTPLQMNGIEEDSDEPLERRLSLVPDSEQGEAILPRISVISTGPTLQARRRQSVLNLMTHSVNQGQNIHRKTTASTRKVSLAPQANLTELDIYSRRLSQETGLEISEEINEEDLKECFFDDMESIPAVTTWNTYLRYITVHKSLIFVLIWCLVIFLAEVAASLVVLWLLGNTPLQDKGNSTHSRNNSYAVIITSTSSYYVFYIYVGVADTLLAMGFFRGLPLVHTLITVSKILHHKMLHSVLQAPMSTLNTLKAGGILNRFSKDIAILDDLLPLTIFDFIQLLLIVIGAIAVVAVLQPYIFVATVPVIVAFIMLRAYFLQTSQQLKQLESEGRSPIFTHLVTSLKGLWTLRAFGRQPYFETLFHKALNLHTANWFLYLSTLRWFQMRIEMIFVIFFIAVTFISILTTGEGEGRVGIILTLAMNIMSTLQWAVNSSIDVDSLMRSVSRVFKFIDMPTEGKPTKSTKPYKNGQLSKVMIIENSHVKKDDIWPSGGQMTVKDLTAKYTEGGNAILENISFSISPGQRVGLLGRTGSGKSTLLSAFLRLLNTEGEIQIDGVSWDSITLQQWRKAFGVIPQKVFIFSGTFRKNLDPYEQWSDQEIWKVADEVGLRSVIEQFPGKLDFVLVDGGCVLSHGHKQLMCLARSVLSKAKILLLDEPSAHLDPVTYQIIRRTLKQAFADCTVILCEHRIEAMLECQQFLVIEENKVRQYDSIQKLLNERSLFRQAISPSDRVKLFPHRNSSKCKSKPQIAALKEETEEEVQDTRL
Assay: peptide or protein array; ProtoArray protein microarray (Invitrogen / ThermoFisher) probed with purified full length FLAG-CFTR in solution; bound CFTR detected with mouse anti-FLAG monoclonal antibody and Alexa-488 secondary antibody, fluorescence scanner; mean of duplicate
Details: both partners purified

| binding result | Binder |
| --- | --- |
| binds | DNAJB7 (on the ProtoArray) (natural protein, UniProt Q7Z6W7 1-309, looked up, DNAJB7, protein spotted on the ProtoArray; source: bought: spotted on ProtoArray protein microarray (Invitrogen / ThermoFisher)) MVDYYEVLGLQRYASPEDIKKAYHKVALKWHPDKNPENKEEAERKFKEVAEAYEVLSNDEKRDIYDKYGTEGLNGGGSHFDDECEYGFTFHKPDDVFKEIFHERDPFSFHFFEDSLEDLLNRPGSSYGNRNRDAGYFFSTASEYPIFEKFSSYDTGYTSQGSLGHEGLTSFSSLAFDNSGMDNYISVTTSDKIVNGRNINTKKIIESDQEREAEDNGELTFFLVNSVANEEGFAKECSWRTQSFNNYSPNSHSSKHVSQYTFVDNDEGGISWVTSNRDPPIFSAGVKEGGKRKKKKRKEVQKKSTKRNC |
| binds | Na+/H+ Exchange Regulator Factor 1 (on the ProtoArray) (natural protein, UniProt O14745 1-358, looked up, NHERF1 (EBP50), protein spotted on the ProtoArray; also called NHERF1; EBP50; source: bought: spotted on ProtoArray protein microarray (Invitrogen / ThermoFisher)) MSADAAAGAPLPRLCCLEKGPNGYGFHLHGEKGKLGQYIRLVEPGSPAEKAGLLAGDRLVEVNGENVEKETHQQVVSRIRAALNAVRLLVVDPETDEQLQKLGVQVREELLRAQEAPGQAEPPAAAEVQGAGNENEPREADKSHPEQRELRPRLCTMKKGPSGYGFNLHSDKSKPGQFIRSVDPDSPAEASGLRAQDRIVEVNGVCMEGKQHGDVVSAIRAGGDETKLLVVDRETDEFFKKCRVIPSQEHLNGPLPVPFTNGEIQKENSREALAEAALESPRPALVRSASSDTSEELNSQDSPPKQDSTAPSSTSSSDPILDFNISLAMAKERAHQKRSSKRAPQMDWSKKNELFSNL |
| binds | DNAJB8 (on the ProtoArray) (natural protein, UniProt Q8NHS0 1-232, looked up, DNAJB8, protein spotted on the ProtoArray; source: bought: spotted on ProtoArray protein microarray (Invitrogen / ThermoFisher)) MANYYEVLGVQASASPEDIKKAYRKLALRWHPDKNPDNKEEAEKKFKLVSEAYEVLSDSKKRSLYDRAGCDSWRAGGGASTPYHSPFDTGYTFRNPEDIFREFFGGLDPFSFEFWDSPFNSDRGGRGHGLRGAFSAGFGEFPAFMEAFSSFNMLGCSGGSHTTFSSTSFGGSSSGSSGFKSVMSSTEMINGHKVTTKRIVENGQERVEVEEDGQLKSVTVNGKEQLKWMDSK |
